Measured values: patent US20260139007A1 (SANFORD BURNHAM PREBYS MEDICAL DISCOVERY INSTITUTE, published 2026)
Numbered stars: 1 amine (or outer) side, 2 acyl side, 3 side chain; on linkers, the order of the positions; unused ones are H or OH. Bridge positions count the residues as written; N and C are the ends. Square brackets hold non-standard residues; d marks the D form. Side chains are listed from the residue outwards. Ends that are not written are not given here. * marks the point of attachment. γGlu = O=C(O)[C@H](CCC(=O)[*:2])N[*:1]; βAsp = O=C(O)[C@H](CC(=O)[*:2])N[*:1]; Palmitoyl = CCCCCCCCCCCCCCCC(=O)*; Lauroyl = CCCCCCCCCCCC(=O)*; Octanoyl = CCCCCCCC(=O)*; Dodecyl = CCCCCCCCCCCC*; βAla = NCCC(=O)O

B1: compound 10 (peptide)
peptide: [βAla]PYCVYK([βAsp-Lauroyl])[βAla]SWSC-NH2
modifications: disulfide 4-12; N-terminus assumed
SMILES: CCCCCCCCCCCC(=O)N[C@@H](CC(=O)NCCCC[C@@H]1NC(=O)[C@H](Cc2ccc(O)cc2)NC(=O)[C@H](C(C)C)NC(=O)[C@@H](NC(=O)[C@H](Cc2ccc(O)cc2)NC(=O)[C@@H]2CCCN2C(=O)CCN)CSSC[C@@H](C(N)=O)NC(=O)[C@H](CO)NC(=O)[C@H](Cc2c[nH]c3ccccc23)NC(=O)[C@H](CO)NC(=O)CCNC1=O)C(=O)O
notes: also called peptide 10; βAPYCVYK(lauroyl-βD)βASWSC-NH2
B2: APY-d3-PEG1 (peptide)
peptide: XPYCVYRXSWSCXXK
modifications: β-alanine at 1 and 8; disulfide bond Cys4-Cys12 (cyclic); 30 kDa methoxy-PEG joined through linker1 at the C-terminus (amide formation with 30 kDa methoxy-PEG succinimidyl carboxymethyl ester on precursor 1, βAPYCVYRβASWSCβAβAK-NH2, SEQ ID NO: 36)
notes: also called βAPYCVYRβASWSC-linker1-PEG
B3: compound 17 (peptide)
peptide: [βAla]PYCVYK([γGlu-Palmitoyl])[βAla]SWSC-NH2
modifications: disulfide 4-12; N-terminus assumed
SMILES: CCCCCCCCCCCCCCCC(=O)N[C@@H](CCC(=O)NCCCC[C@@H]1NC(=O)[C@H](Cc2ccc(O)cc2)NC(=O)[C@H](C(C)C)NC(=O)[C@@H](NC(=O)[C@H](Cc2ccc(O)cc2)NC(=O)[C@@H]2CCCN2C(=O)CCN)CSSC[C@@H](C(N)=O)NC(=O)[C@H](CO)NC(=O)[C@H](Cc2c[nH]c3ccccc23)NC(=O)[C@H](CO)NC(=O)CCNC1=O)C(=O)O
notes: also called peptide 17; βAPYCVYK(palmitoyl-γE)βASWSC-NH2
B4: compound 20 (peptide)
peptide: [βAla]PYCVYR[βAla]SWSCGGGSK([γGlu-γGlu-Palmitoyl])G-NH2
modifications: disulfide 4-12; N-terminus assumed
SMILES: CCCCCCCCCCCCCCCC(=O)N[C@@H](CCC(=O)N[C@@H](CCC(=O)NCCCC[C@H](NC(=O)[C@H](CO)NC(=O)CNC(=O)CNC(=O)CNC(=O)[C@@H]1CSSC[C@H](NC(=O)[C@H](Cc2ccc(O)cc2)NC(=O)[C@@H]2CCCN2C(=O)CCN)C(=O)N[C@@H](C(C)C)C(=O)N[C@@H](Cc2ccc(O)cc2)C(=O)N[C@@H](CCCNC(=N)N)C(=O)NCCC(=O)N[C@@H](CO)C(=O)N[C@@H](Cc2c[nH]c3ccccc23)C(=O)N[C@@H](CO)C(=O)N1)C(=O)NCC(N)=O)C(=O)O)C(=O)O
notes: also called peptide 20
B5: APY-d3-PEG3 (peptide)
peptide: XPYCVYRXSWSCXK
modifications: β-alanine at 1 and 8; disulfide bond Cys4-Cys12 (cyclic); 30 kDa methoxy-PEG joined at the C-terminus through an oxime linkage (APY-d3-βAla-glyoxyl with methoxy-PEG-CONH(CH2)2-ONH2)
notes: also called βAPYCVYRβASWSC-linker3-PEG
B6: compound 1 (peptide)
peptide: APYCVYK[βAla]SWSC-NH2
modifications: disulfide 4-12; N-terminus assumed
SMILES: CC(C)[C@@H]1NC(=O)[C@@H](NC(=O)[C@H](Cc2ccc(O)cc2)NC(=O)[C@@H]2CCCN2C(=O)[C@H](C)N)CSSC[C@@H](C(N)=O)NC(=O)[C@H](CO)NC(=O)[C@H](Cc2c[nH]c3ccccc23)NC(=O)[C@H](CO)NC(=O)CCNC(=O)[C@H](CCCCN)NC(=O)[C@H](Cc2ccc(O)cc2)NC1=O
notes: also called peptide 1; APYCVYKβASWSC-NH2
B7: compound 16 (peptide)
peptide: XPYCVYRXSWSCGGKG
modifications: β-alanine at 1 and 8; myristoyl-γGlu-γGlu on the side chain of the Lys of the C-terminal GGKG; C-terminal amide; disulfide bond Cys4-Cys12 (cyclic)
notes: also called peptide 16
B8: compound 7 (peptide)
peptide: XPYCVYRXSWSCGGKG
modifications: β-alanine at 1 and 8; octanoyl on the side chain of the Lys of the C-terminal GGKG; C-terminal amide; disulfide bond Cys4-Cys12 (cyclic)
notes: also called peptide 7
B9: compound 8 (peptide)
peptide: [βAla]PYCVYK(Lauroyl)[βAla]SWSC-NH2
modifications: disulfide 4-12; N-terminus assumed
SMILES: CCCCCCCCCCCC(=O)NCCCC[C@@H]1NC(=O)[C@H](Cc2ccc(O)cc2)NC(=O)[C@H](C(C)C)NC(=O)[C@@H](NC(=O)[C@H](Cc2ccc(O)cc2)NC(=O)[C@@H]2CCCN2C(=O)CCN)CSSC[C@@H](C(N)=O)NC(=O)[C@H](CO)NC(=O)[C@H](Cc2c[nH]c3ccccc23)NC(=O)[C@H](CO)NC(=O)CCNC1=O
notes: also called peptide 8; βAPYCVYK(lauroyl)βASWSC-NH2
B10: compound 11 (peptide)
peptide: [βAla]PYCVYK([γGlu-Lauroyl])[βAla]SWSC-NH2
modifications: disulfide 4-12; N-terminus assumed
SMILES: CCCCCCCCCCCC(=O)N[C@@H](CCC(=O)NCCCC[C@@H]1NC(=O)[C@H](Cc2ccc(O)cc2)NC(=O)[C@H](C(C)C)NC(=O)[C@@H](NC(=O)[C@H](Cc2ccc(O)cc2)NC(=O)[C@@H]2CCCN2C(=O)CCN)CSSC[C@@H](C(N)=O)NC(=O)[C@H](CO)NC(=O)[C@H](Cc2c[nH]c3ccccc23)NC(=O)[C@H](CO)NC(=O)CCNC1=O)C(=O)O
notes: also called peptide 11; βAPYCVYK(lauroyl-γE)βASWSC-NH2
B11: compound 9 (peptide)
peptide: [βAla]PYCVYK([Gly-Dodecyl])[βAla]SWSC-NH2
modifications: disulfide 4-12
notes: also called peptide 9; βAPYCVYK(lauryl-G)βASWSC-NH2
B12: compound 19 (peptide)
peptide: XPYCVYRXSWSCGGKG
modifications: β-alanine at 1 and 8; palmitoyl-γGlu-γGlu on the side chain of the Lys of the C-terminal GGKG; C-terminal amide; disulfide bond Cys4-Cys12 (cyclic)
notes: also called peptide 19
B13: compound 4 (peptide)
peptide: [βAla]PYCVYK(Octanoyl)[βAla]SWSC-NH2
modifications: disulfide 4-12; N-terminus assumed
SMILES: CCCCCCCC(=O)NCCCC[C@@H]1NC(=O)[C@H](Cc2ccc(O)cc2)NC(=O)[C@H](C(C)C)NC(=O)[C@@H](NC(=O)[C@H](Cc2ccc(O)cc2)NC(=O)[C@@H]2CCCN2C(=O)CCN)CSSC[C@@H](C(N)=O)NC(=O)[C@H](CO)NC(=O)[C@H](Cc2c[nH]c3ccccc23)NC(=O)[C@H](CO)NC(=O)CCNC1=O
notes: also called peptide 4; βAPYCVYK(octanoyl)βASWSC-NH2
B14: APY-d3-PEG2 (peptide)
peptide: XPYCVYRXSWSCXXK
modifications: β-alanine at 1 and 8; disulfide bond Cys4-Cys12 (cyclic); 30 kDa methoxy-PEG joined through linker2 at the C-terminus (amide formation with 30 kDa methoxy-PEG-(CH2)5COO-NHS on precursor 1, βAPYCVYRβASWSCβAβAK-NH2, SEQ ID NO: 36)
notes: also called βAPYCVYRβASWSC-linker2-PEG
B15: compound 5 (peptide)
peptide: [βAla]PYCVYK(Octanoyl)[βAla]SWSCGGRG-NH2
modifications: disulfide 4-12; N-terminus assumed
SMILES: CCCCCCCC(=O)NCCCC[C@@H]1NC(=O)[C@H](Cc2ccc(O)cc2)NC(=O)[C@H](C(C)C)NC(=O)[C@@H](NC(=O)[C@H](Cc2ccc(O)cc2)NC(=O)[C@@H]2CCCN2C(=O)CCN)CSSC[C@@H](C(=O)NCC(=O)NCC(=O)N[C@@H](CCCNC(=N)N)C(=O)NCC(N)=O)NC(=O)[C@H](CO)NC(=O)[C@H](Cc2c[nH]c3ccccc23)NC(=O)[C@H](CO)NC(=O)CCNC1=O
notes: also called peptide 5
B16: compound 6 (peptide)
peptide: [βAla]PYCVYK([Gly-octanyl])[βAla]SWSC-NH2
modifications: disulfide 4-12
notes: also called peptide 6; βAPYCVYK(octanyl-G)βASWSC-NH2
B17: compound 12 (peptide)
peptide: XPYCVYRXSWSCGGKG
modifications: β-alanine at 1 and 8; lauroyl on the side chain of the Lys of the C-terminal GGKG; C-terminal amide; disulfide bond Cys4-Cys12 (cyclic)
notes: also called peptide 12
B18: compound 3 (peptide)
peptide: [βAla]PYCVYK[βAla]SWSC-NH2
modifications: disulfide 4-12; N-terminus assumed
SMILES: CC(C)[C@@H]1NC(=O)[C@@H](NC(=O)[C@H](Cc2ccc(O)cc2)NC(=O)[C@@H]2CCCN2C(=O)CCN)CSSC[C@@H](C(N)=O)NC(=O)[C@H](CO)NC(=O)[C@H](Cc2c[nH]c3ccccc23)NC(=O)[C@H](CO)NC(=O)CCNC(=O)[C@H](CCCCN)NC(=O)[C@H](Cc2ccc(O)cc2)NC1=O
notes: also called peptide 3; βAPYCVYKβASWSC-NH2
B19: compound 14 (peptide)
peptide: XPYCVYRXSWSCGGKG
modifications: β-alanine at 1 and 8; lauroyl-γ-glutamic acid on the side chain of the Lys of the C-terminal GGKG; C-terminal amide; disulfide bond Cys4-Cys12 (cyclic)
notes: also called peptide 14
B20: APY-d3-PEG4 (peptide)
peptide: XPYCVYRXSWSCXXX
modifications: β-alanine at 1 and 8; disulfide bond Cys4-Cys12 (Cyc (4,12)); three 6-aminohexanoic acid (Ahx) residues and propargyl-glycine (Pra) after Cys12; 30 kDa methoxy-PEG on Pra through a triazole (click chemistry); free C-terminal acid (-OH)

Biological target: T1, EphA4 Fc (human EphA4 Fc, #CJ75, Novoprotein, or mouse EphA4 Fc, #641-A4, R&D Systems/BioTechne) (human or mouse, UniProt P54764 20-547)
T1 construct: extracellular domain; bought reagents; also called EphA4 extracellular domain fused to the Fc portion of an antibody; not shown: Fc portion of an antibody
T1 sequence (P54764 20-547): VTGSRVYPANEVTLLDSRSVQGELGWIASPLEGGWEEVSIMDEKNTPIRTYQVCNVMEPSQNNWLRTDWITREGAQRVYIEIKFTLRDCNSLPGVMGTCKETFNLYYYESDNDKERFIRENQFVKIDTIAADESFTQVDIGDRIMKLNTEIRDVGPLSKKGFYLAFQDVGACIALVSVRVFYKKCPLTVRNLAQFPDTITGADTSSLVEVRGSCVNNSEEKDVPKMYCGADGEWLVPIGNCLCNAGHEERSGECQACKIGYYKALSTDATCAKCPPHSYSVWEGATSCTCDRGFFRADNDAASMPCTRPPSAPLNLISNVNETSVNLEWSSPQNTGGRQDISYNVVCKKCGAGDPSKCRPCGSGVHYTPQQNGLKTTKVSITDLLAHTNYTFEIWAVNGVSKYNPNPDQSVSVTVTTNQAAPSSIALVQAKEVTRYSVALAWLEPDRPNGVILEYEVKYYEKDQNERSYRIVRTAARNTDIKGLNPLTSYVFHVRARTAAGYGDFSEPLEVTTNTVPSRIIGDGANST
Assay: competition ELISA, inhibition of ephrin-A5 AP binding to immobilized EphA4 Fc

IC50 [nM]	Binder
110	B1
180	B2
2300	B3
190	B4
15	B5
67	B6
77	B7
34	B8
390	B9
84	B10
590	B11
160	B12
34	B13
83	B14
26	B15
42	B16
240	B17
70	B18

Biological target: T1, EphA4 Fc (human EphA4 Fc, #CJ75, …)
Assay: competition ELISA, ephrin-A5 AP on immobilized EphA4 Fc, same experiments

fold decrease in potency (IC50) against APY-d2 [fold]	fold decrease in potency (IC50) against APY-d3 [fold]	Binder
~2		B6
	~2	B18

Biological target: T1, EphA4 Fc (human EphA4 Fc, #CJ75, …)
Assay: competition ELISA, inhibition of ephrin-A5 AP binding to immobilized EphA4 Fc, with 40 mg/mL delipidated HSA

IC50 [nM]	Binder
1370	B7
110	B8
100	B13
75	B15
130	B16
920	B17

Biological target: T1, EphA4 Fc (human EphA4 Fc, #CJ75, …)
Assay: competition ELISA, inhibition of ephrin-A5 AP binding to immobilized EphA4 Fc, with serum albumin (40 mg/mL HSA by the text; the cell has no footnote)

IC50 [nM]	Binder
55	B6

Biological target: T1, EphA4 Fc (human EphA4 Fc, #CJ75, …)
Assay: competition ELISA, inhibition of ephrin-A5 AP binding to immobilized EphA4 Fc; 0 time point, compound diluted in mouse plasma in vitro (apparent IC50)

IC50 [nM]	Binder
81	B19

Biological target: T1, EphA4 Fc (human EphA4 Fc, #CJ75, …)
Assay: competition ELISA, ephrin-A5 AP on immobilized EphA4 Fc

fold decrease in potency against APY-d3 similarly modified with a C8 lipid [fold]	Binder
> 10	B9
> 10	B11

Biological target: FLAG-tagged EphA4 stably expressed in immortalized cells (HEK-EphA4 cells)
Assay: cell-based or functional assay

Binder	IC50 for inhibition of EphA4 tyrosine phosphorylation (pY596) induced by ephrin-A5 Fc in HEK-EphA4 cells, ELISA of cell lysates [nM]	fold loss of potency against APY-d3, EphA4 tyrosine phosphorylation in HEK-EphA4 cells [fold]
B20	~700	~2.5
